1 molecule from publication PMC11484851, “Structure of endothelin ETB receptor–Gi complex in a conformation stabilized by unique NPxxL motif” (Communications Biology, 2024) can be followed below.

The test concerns the target T1, wild-type Gαi1 subunit (human, UniProt P63096 1-354).
T1 construct: Gαi1, human, wild type; the α chain of m4; source: Sf9 or Hi5 insect cells, co-expressed with Gβ1 and Gγ2, purified as heterotrimer (TALON, SEC)
Nature of the test: cryo-EM structure; purified ET-1-bound ETBR mixed with 1.2 molar excess of wild-type or dominant negative Gi1 heterotrimer (20-24 °C, 2 h), apyrase and λ-phosphatase, then 1.2 molar excess of scFv16; complex purified on 2A5 anti-ETBR resin and by SEC in LMNG/CHS/GDN with 0.1 μM ET-1; single-particle cryo-EM. The note with it: both partners purified. (SEC sorts molecules by how far they enter the pores of the column.)

T1 sequence (P63096 whole entry): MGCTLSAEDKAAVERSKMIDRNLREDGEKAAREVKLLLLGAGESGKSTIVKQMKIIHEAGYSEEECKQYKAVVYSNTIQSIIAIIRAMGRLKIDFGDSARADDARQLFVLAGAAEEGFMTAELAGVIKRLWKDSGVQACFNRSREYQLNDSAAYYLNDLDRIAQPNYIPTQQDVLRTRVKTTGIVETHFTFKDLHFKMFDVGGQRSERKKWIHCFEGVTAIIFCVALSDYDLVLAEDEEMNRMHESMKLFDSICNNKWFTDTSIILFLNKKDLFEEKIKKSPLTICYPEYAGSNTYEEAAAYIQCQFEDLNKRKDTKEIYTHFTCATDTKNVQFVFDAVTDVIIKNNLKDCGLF

B1: endothelin type B receptor, thermostabilized construct used for cryo-EM (R124Y, C396A, C400A, C405A, L66-S407 after 3C cleavage) (receptor, human, UniProt P24530 66-407, looked up)
chain: LAPAEVPKGDRTAGSPPRTISPPPCQGPIEIKETFKYINTVVSCLVFVLGIIGNSTLLYIIYKNKCMRNGPNILIASLALGDLLHIVIDIPINVYKLLAEDWPFGAEMCKLVPFIQKASVGITVLSLCALSIDRYRAVASWSRIKGIGVPKWTAVEIVLIWVVSVVLAVPEAIGFDIITMDYKGSYLRICLLHPVQKTAFMQFYKTAKDWWLFSFYFCLPLAITAFFYTLMTCEMLRKKSGMQIALNDHLKQRREVAKTVFCLVLVFALCWLPLHLSRILKLTLYNQNDPNRCELLSFLLVLDYIGINMASLNSCINPIALYLVSKRFKNAFKSALCCWAQS
notes: endothelin type B receptor (ETBR), human; C-terminus truncated at S407, followed by a 3C site and EGFP-His tag that was cleaved; Residues of the 3C sites probably remain after cleavage (GP before L66, LEVLFQ after S407); also called ETBR; ETB receptor; source: Sf9, purified (TALON, 3C cleavage, SEC) in LMNG/CHS with ET-1; not shown: Flag, N-terminal, cleaved; EGFP-His9, C-terminal, cleaved
Take B1: the binding result is listed as “binds”.
